Measured values reported in patent publication US20240270846A1 (published 2024).

Molecular target: T1, CD3 epsilon homodimer protein (UniProt P07766 23-126)
T1 construct: Construct of the homodimer protein is not described; also called CD3 (CD3 epsilon)
Assay: SPR (Biacore T200), CD3 epsilon homodimer on CM4 chip, one-arm antibody as analyte; ratio to unaltered CE115HA000;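 also: surface plasmon resonance run at 25 °C with HBS-EP+ as running buffer, CD3 epsilon homodimer attached by amine coupling, antibody passed over as analyte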

T1 sequence (P07766 23-126): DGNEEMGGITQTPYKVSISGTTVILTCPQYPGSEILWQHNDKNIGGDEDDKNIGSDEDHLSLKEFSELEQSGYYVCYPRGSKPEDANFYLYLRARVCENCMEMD

| KD ratio (KD value of CE115HA000/KD value of the altered form) | Binder |
| --- | --- |
| 0.92 | CE115HA000 Y100V one-arm antibody (antibody, human IgG1, kappa, L234A L235A, N297A, name in Kabat numbering, one-arm antibody) heavy: QVQLVESGGGVVQPGRSLRLSCAASGFTFSNAWMHWVRQAPGKGLEWVAQIKAKSNNYATYYAESVKGRFTISRDDSKNSLYLQMNSLKTEDTAVYYCRYVHYGAVYGVDAWGQGTTVTVSSASTKGPSVFPLAPSSKSTSGGTAALGCLVKDYFPEPVTVSWNSGALTSGVHTFPAVLQSSGLYSLSSVVTVPSSSLGTQTYICNVNHKPSNTKVDKKVEPKSCDKTHTCPPCPAPEAAGGPSVFLFPPKPKDTLMISRTPEVTCVVVDVSHEDPEVKFNWYVDGVEVHNAKTKPREEQYASTYRVVSVLTVLHQDWLNGKEYKCKVSNKALPAPIEKTISKAKGQPREPQVYTLPPSRCELTKNQVSLSCAVKGFYPSDIAVEWESNGQPENNYKTTPPVLDSDGSFFLVSKLTVDKSRWQQGNVFSCSVMHEALHNHYTQKSLSLSPDYKDDDDK EPKSSDKTHTCPPCPAPELLGGPSVFLFPPKPKDTLMISRTPEVTCVVVDVSHEDPEVKFNWYVDGVEVHNAKTKPREEQYNSTYRVVSVLTVLHQDWLNGKEYKCKVSNKALPAPIEKTISKAKGQPREPQVCTLPPSRDELTKNQVSLWCLVKGFYPSDIAVEWESNGQPENNYKTTPPVLDSDGSFFLYSKLTVDKSRWQQGNVFSCSVMHEALHNRYTQKSLSLSP light: DIVMTQSPLSLPVTPGEPASISCRSSQSLVHSNRNTYLHWYQQKPGQAPRLLIYKVSNRFSGVPDRFSGSGSGTDFTLKISRVEAEDVGVYYCGQGTQVPYTFGQGTKLEIKRTVAAPSVFIFPPSDEQLKSGTASVVCLLNNFYPREAKVQWKVDNALQSGNSQESVTEQDSKDSTYSLSSTLTLSKADYEKHKVYACEVTHQGLSSPVTKSFNRGEC |
| 0.66 | CE115HA000 Y100aA one-arm antibody (antibody, human IgG1, kappa, L234A L235A, N297A, name in Kabat numbering, one-arm antibody) heavy: QVQLVESGGGVVQPGRSLRLSCAASGFTFSNAWMHWVRQAPGKGLEWVAQIKAKSNNYATYYAESVKGRFTISRDDSKNSLYLQMNSLKTEDTAVYYCRYVHYGAYAGVDAWGQGTTVTVSSASTKGPSVFPLAPSSKSTSGGTAALGCLVKDYFPEPVTVSWNSGALTSGVHTFPAVLQSSGLYSLSSVVTVPSSSLGTQTYICNVNHKPSNTKVDKKVEPKSCDKTHTCPPCPAPEAAGGPSVFLFPPKPKDTLMISRTPEVTCVVVDVSHEDPEVKFNWYVDGVEVHNAKTKPREEQYASTYRVVSVLTVLHQDWLNGKEYKCKVSNKALPAPIEKTISKAKGQPREPQVYTLPPSRCELTKNQVSLSCAVKGFYPSDIAVEWESNGQPENNYKTTPPVLDSDGSFFLVSKLTVDKSRWQQGNVFSCSVMHEALHNHYTQKSLSLSPDYKDDDDK EPKSSDKTHTCPPCPAPELLGGPSVFLFPPKPKDTLMISRTPEVTCVVVDVSHEDPEVKFNWYVDGVEVHNAKTKPREEQYNSTYRVVSVLTVLHQDWLNGKEYKCKVSNKALPAPIEKTISKAKGQPREPQVCTLPPSRDELTKNQVSLWCLVKGFYPSDIAVEWESNGQPENNYKTTPPVLDSDGSFFLYSKLTVDKSRWQQGNVFSCSVMHEALHNRYTQKSLSLSP light: DIVMTQSPLSLPVTPGEPASISCRSSQSLVHSNRNTYLHWYQQKPGQAPRLLIYKVSNRFSGVPDRFSGSGSGTDFTLKISRVEAEDVGVYYCGQGTQVPYTFGQGTKLEIKRTVAAPSVFIFPPSDEQLKSGTASVVCLLNNFYPREAKVQWKVDNALQSGNSQESVTEQDSKDSTYSLSSTLTLSKADYEKHKVYACEVTHQGLSSPVTKSFNRGEC |
| 0.96 | CE115HA000 Y100W one-arm antibody (antibody, human IgG1, kappa, L234A L235A, N297A, name in Kabat numbering, one-arm antibody) heavy: QVQLVESGGGVVQPGRSLRLSCAASGFTFSNAWMHWVRQAPGKGLEWVAQIKAKSNNYATYYAESVKGRFTISRDDSKNSLYLQMNSLKTEDTAVYYCRYVHYGAWYGVDAWGQGTTVTVSSASTKGPSVFPLAPSSKSTSGGTAALGCLVKDYFPEPVTVSWNSGALTSGVHTFPAVLQSSGLYSLSSVVTVPSSSLGTQTYICNVNHKPSNTKVDKKVEPKSCDKTHTCPPCPAPEAAGGPSVFLFPPKPKDTLMISRTPEVTCVVVDVSHEDPEVKFNWYVDGVEVHNAKTKPREEQYASTYRVVSVLTVLHQDWLNGKEYKCKVSNKALPAPIEKTISKAKGQPREPQVYTLPPSRCELTKNQVSLSCAVKGFYPSDIAVEWESNGQPENNYKTTPPVLDSDGSFFLVSKLTVDKSRWQQGNVFSCSVMHEALHNHYTQKSLSLSPDYKDDDDK EPKSSDKTHTCPPCPAPELLGGPSVFLFPPKPKDTLMISRTPEVTCVVVDVSHEDPEVKFNWYVDGVEVHNAKTKPREEQYNSTYRVVSVLTVLHQDWLNGKEYKCKVSNKALPAPIEKTISKAKGQPREPQVCTLPPSRDELTKNQVSLWCLVKGFYPSDIAVEWESNGQPENNYKTTPPVLDSDGSFFLYSKLTVDKSRWQQGNVFSCSVMHEALHNRYTQKSLSLSP light: DIVMTQSPLSLPVTPGEPASISCRSSQSLVHSNRNTYLHWYQQKPGQAPRLLIYKVSNRFSGVPDRFSGSGSGTDFTLKISRVEAEDVGVYYCGQGTQVPYTFGQGTKLEIKRTVAAPSVFIFPPSDEQLKSGTASVVCLLNNFYPREAKVQWKVDNALQSGNSQESVTEQDSKDSTYSLSSTLTLSKADYEKHKVYACEVTHQGLSSPVTKSFNRGEC |
| 1.2 | CE115HA000 Y100aD one-arm antibody (antibody, human IgG1, kappa, L234A L235A, N297A, name in Kabat numbering, one-arm antibody) heavy: QVQLVESGGGVVQPGRSLRLSCAASGFTFSNAWMHWVRQAPGKGLEWVAQIKAKSNNYATYYAESVKGRFTISRDDSKNSLYLQMNSLKTEDTAVYYCRYVHYGAYDGVDAWGQGTTVTVSSASTKGPSVFPLAPSSKSTSGGTAALGCLVKDYFPEPVTVSWNSGALTSGVHTFPAVLQSSGLYSLSSVVTVPSSSLGTQTYICNVNHKPSNTKVDKKVEPKSCDKTHTCPPCPAPEAAGGPSVFLFPPKPKDTLMISRTPEVTCVVVDVSHEDPEVKFNWYVDGVEVHNAKTKPREEQYASTYRVVSVLTVLHQDWLNGKEYKCKVSNKALPAPIEKTISKAKGQPREPQVYTLPPSRCELTKNQVSLSCAVKGFYPSDIAVEWESNGQPENNYKTTPPVLDSDGSFFLVSKLTVDKSRWQQGNVFSCSVMHEALHNHYTQKSLSLSPDYKDDDDK EPKSSDKTHTCPPCPAPELLGGPSVFLFPPKPKDTLMISRTPEVTCVVVDVSHEDPEVKFNWYVDGVEVHNAKTKPREEQYNSTYRVVSVLTVLHQDWLNGKEYKCKVSNKALPAPIEKTISKAKGQPREPQVCTLPPSRDELTKNQVSLWCLVKGFYPSDIAVEWESNGQPENNYKTTPPVLDSDGSFFLYSKLTVDKSRWQQGNVFSCSVMHEALHNRYTQKSLSLSP light: DIVMTQSPLSLPVTPGEPASISCRSSQSLVHSNRNTYLHWYQQKPGQAPRLLIYKVSNRFSGVPDRFSGSGSGTDFTLKISRVEAEDVGVYYCGQGTQVPYTFGQGTKLEIKRTVAAPSVFIFPPSDEQLKSGTASVVCLLNNFYPREAKVQWKVDNALQSGNSQESVTEQDSKDSTYSLSSTLTLSKADYEKHKVYACEVTHQGLSSPVTKSFNRGEC |
